Experimental data from the supplement of paper PMC10567573.

Experiment: protein stability index of a GFP-peptide fusion (GPS, HEK-293T) (PSI 1-6); higher = more stable
Conditions: c terminus: a fixed tail appended
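Further: lentivirally expressed fusions sorted by FACS into six bins by GFP to DsRed ratio, PSI derived from sequencing read proportions per bin multiplied by bin number.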

**Q.** With DLMETTQYMNEGELRVLADTYDSV as the protein, how does the protein stability index (parent: IOH53646_26) read?
**A.** Its protein stability index is 2.05.

**Q.** With FAQPMMRPPFGAAAVPGTQLSPSP as the protein, how does the protein stability index (parent: IOH52952_144) read?
**A.** The protein stability index was 3.08.

**Q.** For MAGCRGSLCCCCRWCCCCGERETR, which protein stability index (parent: IOH52910_1) is on record?
**A.** The protein stability index was 1.87.

**Q.** For VGEIVGIITRHNLTYEFLQARLRQ, which protein stability index (parent: IOH52910_141) is on record?
**A.** Its protein stability index is 2.41.

**Q.** With YSSGEFSSGRKWGDDAPKEEVDTG as the protein, how does the protein stability index (parent: IOH53018_58) read?
**A.** Its protein stability index is 2.34.

**Q.** Which protein stability index (parent: IOH53018_138) does the source give for TIIEPAGESDNPLRFTSGLVVALD here?
**A.** Its protein stability index is 2.83.

**Q.** Which protein stability index (parent: IOH52952_113) does the source give for FGGSFMAPSPSPVTPAQNNLLQPN here?
**A.** Its protein stability index is 1.96.

**Q.** For YHIYVALEEEIERNKESPVFAPVY [HMOX1 WT], which protein stability index (parent: IOH54938_10) is on record?
**A.** Its protein stability index is 2.02.

**Q.** Which protein stability index (parent: IOH52910_125) does the source give for ILRSQLVTLLVRGVCYSESQSSAS here?
**A.** The protein stability index was 2.67.

**Q.** With FATASAAVPVSTSKPSSDLLDLQP as the protein, how does the protein stability index (parent: IOH52952_56) read?
**A.** Its protein stability index is 3.71.

**Q.** Which protein stability index (parent: IOH52910_16) does the source give for TGLVGLFVDFFVRLFTQLKFGVVQ here?
**A.** Its protein stability index is 2.3.

**Q.** With YVHHQALLDVKNIAHQNKFGEDMP as the protein, how does the protein stability index (parent: IOH53646_199) read?
**A.** Its protein stability index is 2.

**Q.** For ACAQLATGAACRLVEAVLSGEVLN, which protein stability index (parent: IOH53646_97) is on record?
**A.** Its protein stability index is 2.94.

**Q.** With FQSISLRKIQFNFPYFRSDRDKRD as the protein, how does the protein stability index (parent: IOH52910_37) read?
**A.** Its protein stability index is 1.87.

**Q.** With CAVLDDSIYLVGGYSWSMGAYKSS as the protein, how does the protein stability index (parent: IOH52486_95) read?
**A.** Its protein stability index is 2.2.

**Q.** Which protein stability index (parent: IOH53646_21) does the source give for QEGLLDRCVSFQARFAEKEELMLV here?
**A.** The protein stability index was 1.78.

**Q.** For IVRLHDSISEEGFHYLVFDLVTGG, which protein stability index (parent: IOH54032_13) is on record?
**A.** The protein stability index was 2.65.

**Q.** Which protein stability index (parent: IOH53018_117) does the source give for AKQIMEETYKMEFMYSGVENKQVV here?
**A.** The protein stability index was 1.69.

**Q.** For KMKTRELHRESSNFDSIYICPSTF, which protein stability index (parent: IOH53646_93) is on record?
**A.** The protein stability index was 2.14.

**Q.** With LLKHPNIVRLHDSISEEGFHYLVF as the protein, how does the protein stability index (parent: IOH54032_12) read?
**A.** Its protein stability index is 2.28.

**Q.** With SERPLEDLRLRLDHLGWVARGTGS [RTN2 WT] as the protein, how does the protein stability index (parent: IOH53506_23) read?
**A.** Its protein stability index is 2.32.

**Q.** For IRLVDDAFGKICHMVSDGSWVVRV, which protein stability index (parent: IOH53018_47) is on record?
**A.** The protein stability index was 3.03.

**Q.** For WLYCYDPVMDVWARKQDMNTKRAI, which protein stability index (parent: IOH52486_82) is on record?
**A.** The protein stability index was 1.93.

**Q.** With VKGCSMYVALFPCNECAKLIIQAG [DCTD WT] as the protein, how does the protein stability index (parent: IOH54732_19) read?
**A.** The protein stability index was 2.63.

**Q.** With FSTDAFSSPPQGASPVPESSLTAD as the protein, how does the protein stability index (parent: IOH52952_99) read?
**A.** Its protein stability index is 3.2.

**Q.** For QYMNEGELRVLADTYDSVYLHPNS, which protein stability index (parent: IOH53646_27) is on record?
**A.** Its protein stability index is 1.87.

**Q.** For FAAPSPATTASPAKVDSSGVIDLF, which protein stability index (parent: IOH52952_104) is on record?
**A.** The protein stability index was 2.35.
